From patent publication US20140227292A1 (PROTHENA BIOSCIENCES, published 2014)
One block for each binder: values may come before it.

Legend:
[1] = target: recombinant human laminin 411 (Biolamina) (human, UniProt Q16363 25-1823; P07942 22-1786; P11047 34-1609); experiment: SPR, Biacore T200, steady state, Fc-tagged MCAM IgG1-2A captured by anti-Fc, laminin as analyte
[2] = target: T1, human MCAM (melanoma cell adhesion molecule), expressed on transfected CHO cells (human, UniProt P43121 24-646); experiment: blocking assay of the re-expressed antibodies (Table 7 'Blocking IC50'; laminin/FACS assay of paragraph 438): % inhibition of laminin 411 binding to hMCAM-expressing CHO cells
T1 construct: also called hMCAM; CD146
T1 chain: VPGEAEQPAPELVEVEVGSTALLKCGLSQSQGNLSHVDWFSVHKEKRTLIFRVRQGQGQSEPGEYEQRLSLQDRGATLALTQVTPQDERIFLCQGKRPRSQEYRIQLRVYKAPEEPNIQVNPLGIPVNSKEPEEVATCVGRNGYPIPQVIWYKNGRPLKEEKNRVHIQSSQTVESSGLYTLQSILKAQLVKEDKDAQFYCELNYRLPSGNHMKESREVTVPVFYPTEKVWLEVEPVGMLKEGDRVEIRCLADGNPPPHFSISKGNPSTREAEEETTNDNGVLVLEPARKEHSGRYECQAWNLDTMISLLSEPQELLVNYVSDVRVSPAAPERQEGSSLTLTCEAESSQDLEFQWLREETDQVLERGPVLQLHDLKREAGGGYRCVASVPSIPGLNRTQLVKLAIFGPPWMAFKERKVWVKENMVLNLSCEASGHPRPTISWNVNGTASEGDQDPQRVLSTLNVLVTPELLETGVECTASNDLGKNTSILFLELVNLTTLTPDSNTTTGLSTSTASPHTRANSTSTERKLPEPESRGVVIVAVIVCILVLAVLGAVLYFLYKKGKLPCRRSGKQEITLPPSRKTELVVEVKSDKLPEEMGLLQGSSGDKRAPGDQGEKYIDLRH
Procedure: Following incubation for 30-45 minutes, the cells were washed and anti-laminin conjugated to AF650 (NovusBio) was added to detect the bound laminin. The cells were run on a flow cytometer to measure the laminin binding signal.

B1: Recombinant human Fc-tagged MCAM IgG1-2A (human MCAM domains 1 and 2, amino acids 19-242) (Fc fusion)
chain: PRVAGVPGEAEQPAPELVEVEVGSTALLKCGLSQSQGNLSHVDWFSVHKEKRTLIFRVRQGQGQSEPGEYEQRLSLQDRGATLALTQVTPQDERIFLCQGKRPRSQEYRIQLRVYKAPEEPNIQVNPLGIPVNSKEPEEVATCVGRNGYPIPQVIWYKNGRPLKEEKNRVHIQSSQTVESSGLYTLQSILKAQLVKEDKDAQFYCELNYRLPSGNHMKESREVT
notes: also called human MCAM IgG1-2A; MCAM Fc domains 1 and 2; not shown: human Fc tag
- Kd [1]: 66 nM

B2: chimeric 2107 (antibody, V domains shown)
VH: QVQLKESGPGLVQSSQTLSLTCTVSGFSLTSNGVSWVRQPPGKGLEWIAAISSGGSTYYNSAFKSRLSISRNTSKSQVLLKMNSLQTEDTGMYFCARHRPFYFDYWGQGVMVTVSS
VL: DIQVTQSPSLLSASVGDRVTLNCKGSQNIYKSLAWFRLKRGEAPKLLIYDANSLQTGIPSRFSGSGSGTDFTLTITSLQPEDVATYFCQQYYSGYTFGAGTKLELK
- IC50 (read off the curve) [2]: ~0.5 µg/mL

Further lines, results first:

- IC50 (read off the curve) [2]: ~0.4 µg/mL
B3: chimeric 1749 (antibody, V domains shown)
VH: DVKLVESGGDLVKPGGSLKLSCAASGFTFSSYIMSWVRQTPEKRLEWVATISSGGSSTYYPDSVKGRFTISRDNAKNTLYLQMSSLKSEDTAMYYCTRDDDYDVKVFAYWGQGTLVTVSA
VL: DIVMSQSPSSLAVSAGEKVTMNCKSSRSLLNSRIRKNYLAWYQQKPGQSPKLLIYWASTRESGVPDRFTGSGSGTDFTLTISSVQAEDLAVYYCKQSYNLLTFGAGTKLELK

- IC50 (read off the curve) [2]: ~0.8 µg/mL
B4: h2107_VH2 + h2107_VL2 (antibody, V domains shown)
VH: QVTLKESGPVLVKPTETLTLTCTVSGFSLTSNGVSWVRQPPGKALEWIAAISSGGSTYYNSAFKSRLSISRDTSKSQVVLTMTNMDPVDTATYYCARHRPFYFDYWGQGTLVTVSS
VL: DIQMTQSPSSLSASVGDRVTITCKGSQNIYKSLAWFQLKPGKVPKLLIYDANSLQTGIPSRFSGSGSGTDFTLTISSLQPEDVATYYCQQYYSGYTFGGGTKVEIK
notes: also called h2107VH2VL2; VH2VL2
